# Source: US20150307590A1 (GOVERNORS OF THE UNIVERSITY OF ALBERTA, published 2015)
# T1: human IL-28R alpha subunit (human, UniProt Q8IU57 21-228, limits assumed)
# T1 construct: also called IL28R1; IL-28R1
# T1 sequence: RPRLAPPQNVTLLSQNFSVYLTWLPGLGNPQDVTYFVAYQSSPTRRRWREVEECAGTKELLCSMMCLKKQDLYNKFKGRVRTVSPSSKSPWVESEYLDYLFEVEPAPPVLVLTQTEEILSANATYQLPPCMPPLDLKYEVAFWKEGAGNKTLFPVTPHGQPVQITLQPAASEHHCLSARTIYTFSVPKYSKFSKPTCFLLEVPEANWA
# Target: T1, human IL-28R alpha subunit
# Experiment: ELISA (right panel)
row,binding result,Binder
1,binds,ELASFKKARDALEESLKL (also called 28pep1; Pep1) [Peptide 1 (IL29-1)]
2,binds,ELQAFKRAKDALEESLLL (also called 28pep2; Pep2) [Peptide 2 (IL28-1)]
3,binds,EATADTDPALGDVLDQPL (also called 28pep18) [Peptide 18 (IL28BT-3)]
4,binds,KLKNWSCSSPVFPGNWDLRL (also called 28pep17; p17) [Peptide 17 (IL29T-2)]
5,binds,LLKDCKCRSRLFPRTWDLRQ (also called 28pep15) [Peptide 15 (IL28BT-2)]
6,binds,LLKDCRCHSRLFPRTWDLRQ (also called 28pep16) [Peptide 16 (IL28AT-2)]

# Target: T1, human IL-28R alpha subunit
# Experiment: Biacore assay (left panel), n=6
row,binding result,Binder
1,binds,"human IL-29 (ligand, also called IFN-λ1; interferon-lambda-1) GPVPTSKPTTTGKGCHIGRFKSLSPQELASFKKARDALEESLKLKNWSCSSPVFPGNWDLRLLQVRERPVALEAELALTLKVLEAAAGPALEDVLDQPLHTLHHILSQLQACIQPQPTAGPRPRGRLHHWLHRLQEAPKKESAGCLEASVTFNLFRLLTRDLKYVADGNLCLRTSTHPEST"
2,binds,"human IL-28A (ligand, also called IFN-λ2; interferon-lambda-2) VPVARLHGALPDARGCHIAQFKSLSPQELQAFKRAKDALEESLLLKDCRCHSRLFPRTWDLRQLQVRERPMALEAELALTLKVLEATADTDPALVDVLDQPLHTLHHILSQFRACIQPQPTAGPRTRGRLHHWLYRLQEAPKKESPGCLEASVTFNLFRLLTRDLNCVASGDLCV"
3,binds,"human IL-28B (ligand, also called IFN-λ3; interferon-lambda-3) VPVARLRGALPDARGCHIAQFKSLSPQELQAFKRAKDALEESLLLKDCKCRSRLFPRTWDLRQLQVRERPVALEAELALTLKVLEATADTDPALGDVLDQPLHTLHHILSQLRACIQPQPTAGPRTRGRLHHWLHRLQEAPKKESPGCLEASVTFNLFRLLTRDLNCVASGDLCV"
